From the nanobody polyreactivity screen of Harvey et al. (2022)

Assay: yeast display, Sf9 membrane polyspecificity reagent, FACS + sequencing; frameworks hold sequencing errors
How it was run: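 A synthetic nanobody library was expressed on Saccharomyces cerevisiae BJ5465 by galactose induction for 36–48 hours. The library was stained for 1 hour at 4 °C with 10% biotinylated, detergent-solubilized Sf9 membrane reagent and enriched with streptavidin microbeads before FACS. Low and high (top ~1%) gates were set on anti-HA fluorescence for expression and streptavidin fluorescence for reagent binding, and each polyreactivity label reflects the gate of origin.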

Sequence	polyreactivity (PSR sort gate)
QVQLVESGGGLVQAGGSLRLSCAASGYTFDAYAMGWYRQAPGKERELVAAITTNGGSTYYADSVKGRFTISRDNAKNTVYLQMNSLKPEDTAVYYCNAEYWYEGRYPYDYWGQGTQVTVSS	low polyreactivity
QVQLVESGGGLVQAGGSLRLSCAASGRIFHPNAMGWYRQAPGKERELVAAITNSGGITYADSVKGRFTISRDNAKNTVYLQMNSLKPEDTAVYYCNTATNRFHYKYRKPYDYWGQGTQVTVSS	low polyreactivity
QVQLVESGGGLVQAGGSLRLSCAASGRIFDYYAMGWYRQAPGKERELVARITSGGTTNYADSVKGRFTISRDNAKNPVYLQMNSLKPEDTAVYYCAADVYGTVRRVGWYYVGEGYDYWGQGTQVTVSS	low polyreactivity
QVQLVESCGGLVQAGGSLRLSCAASGFIFWCYTMGWYIQAPGKERELVAAITGSGGSTYYADSVKGRFTISRDNAKNTVNFQMNSLKPEDTAVYYCNAVSAYKWEYYYWGQGTLVTVSS	high polyreactivity
QVQLVESGGGLVQAGGSLRLSCAASGRTFYIYAMGWYRQAPGKERELVAAITWRGGRTYYADSVKGRFTISRDNAKNTVYLQMNSLKPEDTAVYYCAARTGQGPLYNHWGQGTQVTVSS	high polyreactivity
QVQLVESGGGLVQAGGSLRLSCAASGFTFRRYAMGWYRQAPGKEREMVAVINVSDGSTYYADSVKGRFTISRDNAKNTVYLQMNSLKPEDTAVYYCAAYLYNRPYQLPGYYDGYGYWGQGTQVTVSS	low polyreactivity
QVQLVESGGGLVQAGGSLRLSCAASGSIFDAYAMGWYRQAPGKERELVAAISLSDTSTYYADSVKGRFTISRDNAKNTVYLQMNSLKPEDTAVYYCAAEFYIAYIEYDYWGQGTQVTVSS	high polyreactivity
QVQLVESGGGLVQAGGSLRLSCAASGITFVPYAMGWDRQAPGKERELVAAISSSGGSTYYADSVKGRFTISRDNAKNTVYLQMNSLKPEDTAVYYCNVRTHSYIGMDYWGQGTQVTVSS	low polyreactivity
QVQLVESGGGLVQAGGSLRLSCAASGRIFPKYAMGWYRQAPGKERELVAAIRWSGGNTYYADSVKGRFTISRDNAKNTVYLQMNSLKPEDTAVYYCAATPYVSKYYYFGHDYWGQGTQVTVSS	high polyreactivity
QVQLVESGGGLVQAGGSLRLSCAASGFTLDKYAMGWYRQAPGKERELVAAITWSGGSTYYADSVKGRFTISRDNAKNTVYLQMNSLKPEDTAVYYCNVLRYRLWGQGTQVTVSS	high polyreactivity
QVQLVESGGGLVQAGGSLRLSCAASGPIFKRNAMGWYRQAPGKERELVAAISGSGGRTYYADSVKGRFTISRDNAKYTVYLQMNSLKREDTAVYYCNAGGSYYARGMDYWGQGTQVTVSS	high polyreactivity
QVQLVESGGGLVQAGGSLRLSCAASGFTFNTNAMGWYRQAPGKETELVAAITWTGGRTYYADSVKGRFTISRDNAKNTVHLQMNSLKPEDTAVYYCAAESFGYSIDITDHEYWGQGTQVTVSS	high polyreactivity
QVQLVESGGGLVQAGGSLRLSCAASGSTFSPYALGWYRQAPGKERELVAGITSSGGDTYYADSVKGRFTISRDNAKNTVYLQMNSLKPEDTAVYYCAADWWVLGQLWFDYWGQGTQVTVSS	low polyreactivity
QVQLVESGGGLVQAGGSLRLSCAASGSIFRSYAMGWYRQAPGKERELVAAIRGGGSTNYADSVKGRFTISRDNAKNTVYLQMNSLKPEDTAVYYFAADKKTKVDWGQGTQVTVSS	high polyreactivity
QVQLVESGGGLVQAGGSLRLSCAASGFTFGTYAMGWYRQAPGKERELVAAITSSGTITYYADSVKGRFTISRDNAKNTVYLQMNSLKPEDTAVYYCAARRFRRLRWGQGTQVTVSS	low polyreactivity
QVQLVESGGGLVQAGGSLRLSCAASGFIFVRYAMGWYRQAPGKEREFVAAISGGAGSTYYADSVKGRFTISRDNAKNTVYLQMNSLKPEDTAVYYCNRVRSLRYGYWGQGTQVTVSS	high polyreactivity
QVQLVESGGGLVQAGGSLRLSCAASGITFRWYAMGWYRQAPGKEREFVAAIDASGSTYYADSVKGRFTISRDNAKNTVYLQMNSLKPEDTAVYYCAADWDEYFGGDYWGQGTQVTVSS	low polyreactivity
